Source: article PMC11128199 (2024)

Molecular target: S protein of WT SARS-CoV-2 (SARS-CoV-2, UniProt P0DTC2)
Test: ELISA

B1: 55A8 neutralizing antibody (IgG) (antibody, V domains shown)
VH: QVQLVQSGAEVKKPGSSVKVSCKASGGTFSSYSFIWVRQAPGQGLEWMGRIIPILGIANYAQKFQGRVTITADKSTTTAYMELSSLRSEDTAVYYCARGTEYGDYDVSHDWGQGTLVTVSS
VL: not shown
EC50: 0.0439 µg/mL
